Data taken from publication PMC9601244.

Biological target: NGAL (neutrophil gelatinase-associated lipocalin) (UniProt P80188 24-198, C107S)
Assay: dipstick lateral-flow sandwich assay

Sequence of NGAL (neutrophil gelatinase-associated lipocalin) (P80188 24-198 C107S): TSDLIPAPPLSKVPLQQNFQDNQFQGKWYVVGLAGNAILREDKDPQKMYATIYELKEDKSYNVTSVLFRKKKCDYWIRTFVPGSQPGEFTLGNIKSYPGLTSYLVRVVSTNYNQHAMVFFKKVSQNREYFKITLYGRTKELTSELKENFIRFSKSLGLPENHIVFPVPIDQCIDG

Q: Does ATGGCGGAGCTGGATAGTATAGTCGG (ssDNA) [NGAL truncated aptamer, biotinylated (26-base)] bind?
A: Result: binds
